From patent US11098102B2, “Insulin conjugates” (SANOFI, priority 2018, dated 2021)

Key:
[1] = biological target: T1, insulin receptor isoform B (IR-B) (Homo sapiens, UniProt P06213); assay: Insulin receptor binding affinity assay of insulin analogs (Example 8A, SPA competition binding); set-up: expressed in transfected cells; host or cells: CHO cells overexpressing the IR; isolated plasma membranes; conditions: relative to human insulin; a value of 0 means below the detection limit
Description: Methods for determining the binding affinity of an insulin analog to an insulin receptor are well known in the art. […] The insulin receptor can be present in a membrane of a cell, e.g. of CHO (Chinese Hamster Ovary) cell, which overexpresses a recombinant insulin receptor. In an embodiment, the insulin receptor binding affinity is determined as described in the Examples section.
Insulin receptor binding affinity for the analogs listed in Table 4 was determined as described in Hartmann et al. (Effect of the long-acting insulin analogs glargine and degludec on cardiomyocyte cell signaling and function. Cardiovasc Diabetol. 2016; 15:96). Isolation of insulin receptor embedded plasma membranes (M-IR) and competition binding experiments were performed as previously described (Sommerfeld et al., PLoS One. 2010; 5 (3): e9540). Briefly, CHO-cells overexpressing the IR were collected and re-suspended in ice-cold 2.25 STM buffer (2.25 M sucrose, 5 mM Tris-HCl pH 7.4, 5 mM MgCl2, complete protease inhibitor) and disrupted using a Dounce homogenizer followed by sonication. The homogenate was overlaid with 0.8 STM buffer (0.8 M sucrose, 5 mM Tris-HCl pH 7.4, 5 mM MgCl2, complete protease inhibitor) and ultra-centrifuged for 90 min at 100,000 g. Plasma membranes at the interface were collected and washed twice with phosphate buffered saline (PBS). The final pellet was re-suspended in dilution buffer (50 mM Tris-HCl pH 7.4, 5 mM MgCl2, complete protease inhibitor) and again homogenized with a Dounce homogenizer. Competition binding experiments were performed in a binding buffer (50 mM Tris-HCl, 150 mM NaCl, 0.1% BSA, complete protease inhibitor, adjusted to pH 7.8) in 96-well microplates. In each well 2 μg isolated membrane was incubated with 0.25 mg wheat germ agglutinin polyvinyltoluene polyethylenimine scintillation proximity assay (SPA) beads. […] The radioactivity was measured at equilibrium in a microplate scintillation counter (Wallac Microbeta, Freiburg, Germany).”

Cathepsin D = Cathepsin D (Homo sapiens, UniProt P07339); assay: In vitro proteolytic stability against cathepsin D (Example 9); format: in vitro ADME; conditions: 37° C., 2 μM
Sequence of Cathepsin D (P07339 65-412, species assumed): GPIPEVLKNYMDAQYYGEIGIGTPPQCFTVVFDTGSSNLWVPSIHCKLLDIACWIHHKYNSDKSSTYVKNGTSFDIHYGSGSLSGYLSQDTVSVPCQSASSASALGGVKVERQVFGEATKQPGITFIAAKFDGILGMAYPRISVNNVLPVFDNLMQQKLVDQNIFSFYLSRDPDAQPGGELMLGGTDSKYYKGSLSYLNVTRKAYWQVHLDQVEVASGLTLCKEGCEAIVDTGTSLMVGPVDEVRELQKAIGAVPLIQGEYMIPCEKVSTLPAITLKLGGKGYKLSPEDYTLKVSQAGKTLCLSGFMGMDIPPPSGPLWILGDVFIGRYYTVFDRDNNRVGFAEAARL
Description: (§1) The stability determination was done using appropriate time points (for SIF and SGF 15, 30, 60, 120 and 240 minutes; for proteases 15, 30, 60 and 120 minutes). The incubation was done at 37° C. and the % of remaining parent compound was calculated in reference to a TO time point.
(§2) For the determination of the parent compound an appropriate bioanalytical LC-MS/MS or LC-HRMS method was used, using the supernatant, after protein precipitation with ethanol (1 eq. v/v) and a centrifugation step.
(§3) Compounds were dissolved in diluted hydrochloric acid at a final concentration of 40 μM. The compound concentration in the assay was 2 μM. A 1:20 dilution of the working solution was done into the protease buffer and samples are then incubated at 37° C., under stirring. At the appropriate time point and aliquot was taken, the reaction was quenched ethanol (1 eq. v/v), than centrifuged. The supernatant was analyzed.

[2] = biological target: T1, insulin receptor isoform B (IR-B); assay: Insulin receptor autophosphorylation assay (In-Cell Western, CHO cells, Example 8B); format: cell-based; set-up: expressed in transfected cells; host or cells: CHO cells; conditions: relative to human insulin
[3] = biological target: Insulin degrading enzyme, IDE (Homo sapiens, UniProt P14735); assay: In vitro proteolytic stability against insulin degrading enzyme (Example 9); format: in vitro ADME; conditions: 37° C., 2 μM
Description: as §1, §2, §3

[4] = biological target: T2, simulated gastric fluid (pepsin) (Sus scrofa, UniProt P00791); assay: In vitro stability in simulated gastric fluid (Example 9); format: in vitro ADME, porcine; conditions: 37° C., 2 μM
T2 construct: from tissue; host or cells: porcine stomach mucosa
T2 sequence (P00791 60-385): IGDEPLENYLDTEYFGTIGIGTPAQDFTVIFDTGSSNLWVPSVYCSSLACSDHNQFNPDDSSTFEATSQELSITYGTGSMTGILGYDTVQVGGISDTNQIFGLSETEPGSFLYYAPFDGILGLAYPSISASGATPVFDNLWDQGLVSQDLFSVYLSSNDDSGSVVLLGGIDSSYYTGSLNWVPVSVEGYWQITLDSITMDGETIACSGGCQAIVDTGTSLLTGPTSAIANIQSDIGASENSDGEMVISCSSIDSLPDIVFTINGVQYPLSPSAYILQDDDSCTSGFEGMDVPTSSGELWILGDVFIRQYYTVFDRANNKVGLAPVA
Description: Two grams of sodium chloride and 3.2 g of purified pepsin (from porcine stomach mucosa, with an activity of 800 to 2500 units per mg of protein) were dissolved in 7.0 ml of hydrochloric acid. The volume was adjusted with water up to 1000 ml.
as §1, §2, §3

[5] = biological target: T3, immobilized human serum albumin (Homo sapiens, UniProt P02768); assay: Albumin binding: affinity chromatography on columns with immobilized human serum albumin (net retention time); conditions: isolated binders; HSA column 25° C., PBS pH 7.4/isopropanol gradient
T3 construct: purchased Chiralpak (Chiraltech) 34712
T3 sequence (P02768 25-609): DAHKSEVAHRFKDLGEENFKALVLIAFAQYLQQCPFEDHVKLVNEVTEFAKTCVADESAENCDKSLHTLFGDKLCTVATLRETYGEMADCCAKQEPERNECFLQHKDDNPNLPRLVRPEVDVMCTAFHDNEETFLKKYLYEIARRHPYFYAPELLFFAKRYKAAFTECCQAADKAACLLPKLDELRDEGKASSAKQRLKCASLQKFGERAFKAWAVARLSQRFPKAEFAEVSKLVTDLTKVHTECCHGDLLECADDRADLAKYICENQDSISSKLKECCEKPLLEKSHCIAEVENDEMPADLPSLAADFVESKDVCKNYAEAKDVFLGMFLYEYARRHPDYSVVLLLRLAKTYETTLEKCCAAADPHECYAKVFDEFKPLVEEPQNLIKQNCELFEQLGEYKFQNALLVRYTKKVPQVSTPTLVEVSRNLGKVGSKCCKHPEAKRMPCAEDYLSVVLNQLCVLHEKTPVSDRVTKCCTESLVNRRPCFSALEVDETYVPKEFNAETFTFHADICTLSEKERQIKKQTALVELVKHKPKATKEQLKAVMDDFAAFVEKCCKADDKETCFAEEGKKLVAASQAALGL
How it was run: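 Immobilized human serum albumin HPLC column (50×4 mm, 5 μm) at 25 °C, PBS pH 7.4/isopropanol gradient, 1.0 ml/min, UV 220 nm. Insulin conjugates at 1 mg/ml in PBS, isolated binders at 250 μM in isopropanol/water 1:1; net retention time = sample minus NaNO3 t0 marker.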

α-Chymotrypsin = α-Chymotrypsin (Bos taurus, UniProt P00766); assay: In vitro proteolytic stability against α-chymotrypsin (Example 9); format: in vitro ADME; conditions: 37° C., 2 μM
Description: as §1, §2, §3

T1 sequence (P06213 28-758 limits assumed): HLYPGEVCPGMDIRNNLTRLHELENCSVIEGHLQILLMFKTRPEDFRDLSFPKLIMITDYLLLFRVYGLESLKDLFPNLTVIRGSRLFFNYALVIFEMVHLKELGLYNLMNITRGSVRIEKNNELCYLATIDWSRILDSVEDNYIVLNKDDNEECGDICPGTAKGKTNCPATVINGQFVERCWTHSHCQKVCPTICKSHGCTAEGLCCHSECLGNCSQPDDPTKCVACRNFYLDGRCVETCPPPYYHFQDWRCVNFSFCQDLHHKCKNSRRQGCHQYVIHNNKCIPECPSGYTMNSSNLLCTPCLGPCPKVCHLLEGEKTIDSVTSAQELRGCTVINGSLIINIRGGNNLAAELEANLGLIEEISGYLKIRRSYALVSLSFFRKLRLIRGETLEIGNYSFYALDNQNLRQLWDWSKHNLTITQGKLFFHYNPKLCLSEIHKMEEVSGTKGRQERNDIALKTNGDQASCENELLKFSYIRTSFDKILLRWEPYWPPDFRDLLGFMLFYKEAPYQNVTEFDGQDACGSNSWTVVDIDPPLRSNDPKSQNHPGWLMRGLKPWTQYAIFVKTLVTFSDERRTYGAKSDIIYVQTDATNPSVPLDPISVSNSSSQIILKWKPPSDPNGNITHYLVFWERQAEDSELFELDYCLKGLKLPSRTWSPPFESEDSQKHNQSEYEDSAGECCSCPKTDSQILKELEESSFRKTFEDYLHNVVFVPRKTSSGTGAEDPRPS
T1 sequence (P06213 763-1382 limits assumed): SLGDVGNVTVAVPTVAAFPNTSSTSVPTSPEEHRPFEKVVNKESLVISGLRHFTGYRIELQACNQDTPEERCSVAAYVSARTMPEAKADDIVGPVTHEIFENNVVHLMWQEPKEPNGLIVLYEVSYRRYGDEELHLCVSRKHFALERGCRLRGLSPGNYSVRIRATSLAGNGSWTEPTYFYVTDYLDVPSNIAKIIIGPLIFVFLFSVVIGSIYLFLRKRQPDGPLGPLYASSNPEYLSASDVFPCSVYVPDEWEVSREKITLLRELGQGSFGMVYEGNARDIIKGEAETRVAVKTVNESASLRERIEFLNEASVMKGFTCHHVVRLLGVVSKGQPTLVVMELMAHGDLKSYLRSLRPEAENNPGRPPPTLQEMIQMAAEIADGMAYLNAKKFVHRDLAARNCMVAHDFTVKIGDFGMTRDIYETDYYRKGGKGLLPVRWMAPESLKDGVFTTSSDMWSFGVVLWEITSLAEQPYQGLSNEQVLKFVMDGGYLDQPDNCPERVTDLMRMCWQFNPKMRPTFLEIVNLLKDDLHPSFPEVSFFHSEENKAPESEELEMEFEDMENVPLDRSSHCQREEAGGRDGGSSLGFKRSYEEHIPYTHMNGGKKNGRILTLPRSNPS

O=C(O)CCCCCCCCCCCc1cc(Oc2ccc(S(=O)(=O)Nc3ccc(C(=O)NCCOCCOCC(=O)NCCOCCOCC(=O)O)cn3)cc2)ccc1F [Binder 24]
Insulin-receptor binding affinity [1]: 0.01 | Percent remaining insulin analog, Cathepsin D (30 minutes) (Cathepsin D): 59% | autophosphorylation activity [2]: 0.04 | Percent remaining insulin analog, Insulin degrading enzyme, IDE (30 minutes) [3]: 86% | Percent remaining insulin analog, Gastric fluid (30 minutes) [4]: 52% | NRT [min] (net retention time on columns with immobilized human serum albumin) [5]: 15.76 min | Percent remaining insulin analog, α-Chymotrypsin (120 minutes) (α-Chymotrypsin): 40%

O=C(O)CCCCCCCCCCCCCc1ccc(CCOc2ccc(S(=O)(=O)Nc3ncc(C(=O)NCCOCCOCC(=O)NCCOCCOCC(=O)O)cn3)cc2)cc1 [Binder 12]
Insulin-receptor binding affinity [1]: 0.01 | Percent remaining insulin analog, Cathepsin D (30 minutes) (Cathepsin D): 43% | autophosphorylation activity [2]: 0.06 | Percent remaining insulin analog, Insulin degrading enzyme, IDE (30 minutes) [3]: 11% | Percent remaining insulin analog, Gastric fluid (30 minutes) [4]: 44% | NRT [min] (net retention time on columns with immobilized human serum albumin) [5]: 14.95 min | Percent remaining insulin analog, α-Chymotrypsin (120 minutes) (α-Chymotrypsin): 31%

O=C(O)CCCCCCCCCCCCCCOc1ccc(S(=O)(=O)Nc2ccc(C(=O)NCCOCCOCC(=O)NCCOCCOCC(=O)O)cn2)cc1 [Binder 7]
Insulin-receptor binding affinity [1]: 0.05 | Percent remaining insulin analog, Cathepsin D (30 minutes) (Cathepsin D): 52% | autophosphorylation activity [2]: 0.2 | Percent remaining insulin analog, Insulin degrading enzyme, IDE (30 minutes) [3]: 2% | Percent remaining insulin analog, Gastric fluid (30 minutes) [4]: 30% | NRT [min] (net retention time on columns with immobilized human serum albumin) [5]: 14.65 min | Percent remaining insulin analog, α-Chymotrypsin (120 minutes) (α-Chymotrypsin): 58%

O=C(O)CCCCCCCCCc1ccc(OCc2ccc(S(=O)(=O)Nc3ccc(C(=O)NCCOCCOCC(=O)NCCOCCOCC(=O)O)cc3)cc2)cc1 [Binder 2]
Insulin-receptor binding affinity [1]: 1.05 | Percent remaining insulin analog, Cathepsin D (30 minutes) (Cathepsin D): 0% | autophosphorylation activity [2]: 0.87 | Percent remaining insulin analog, Insulin degrading enzyme, IDE (30 minutes) [3]: 81% | Percent remaining insulin analog, Gastric fluid (30 minutes) [4]: 0% | NRT [min] (net retention time on columns with immobilized human serum albumin) [5]: 17.88 min | Percent remaining insulin analog, α-Chymotrypsin (120 minutes) (α-Chymotrypsin): 35%

O=C(O)CCCCCCCCCCCCCc1cc(Oc2ccc(S(=O)(=O)Nc3ccc(C(=O)NCCOCCOCC(=O)NCCOCCOCC(=O)O)cn3)cc2)ccc1F [Binder 22]
Insulin-receptor binding affinity [1]: 0.01 | Percent remaining insulin analog, Cathepsin D (30 minutes) (Cathepsin D): 20% | autophosphorylation activity [2]: 0.04 | Percent remaining insulin analog, Insulin degrading enzyme, IDE (30 minutes) [3]: 77% | Percent remaining insulin analog, Gastric fluid (30 minutes) [4]: 52% | NRT [min] (net retention time on columns with immobilized human serum albumin) [5]: 15.55 min | Percent remaining insulin analog, α-Chymotrypsin (120 minutes) (α-Chymotrypsin): 99%

O=C(O)CCCCCCCCCCCCCCCOc1ccc(S(=O)(=O)Nc2ncc(C(=O)NCCOCCOCC(=O)NCCOCCOCC(=O)O)cn2)cc1F [Binder 38]
Insulin-receptor binding affinity [1]: 0 | Percent remaining insulin analog, Cathepsin D (30 minutes) (Cathepsin D): 62% | autophosphorylation activity [2]: 0.03 | Percent remaining insulin analog, Insulin degrading enzyme, IDE (30 minutes) [3]: 86% | Percent remaining insulin analog, Gastric fluid (30 minutes) [4]: 36% | NRT [min] (net retention time on columns with immobilized human serum albumin) [5]: 13.53 min | Percent remaining insulin analog, α-Chymotrypsin (120 minutes) (α-Chymotrypsin): 34%
